Laboratory results: patent US20250304644A1, “PEPTIDES TRIPLE AGONISTS OF GIP, GLP-1 AND GLP-2” (BAINAN BIOTECH APS, priority 2021, published 2025)
*1 amine or outer side, *2 acyl side, *3 side chain or, on linkers, in order; H or OH if unused. Where no end group is shown, it is not given here. Side-chain parts run from the residue outwards. [ ]: non-standard residue; d: D form. The star is where a group is joined. C18 diacid = O=C(O)CCCCCCCCCCCCCCCCC(=O)*; γGlu = O=C(O)[C@H](CCC(=O)[*:2])N[*:1]; AEEA = NCCOCCOCC(=O)O; Aib = CC(C)(N)C(=O)O

Tests used:
Assay in all cases: cell-based or functional assay
[1] = target: T1, human GLP-2R (glucagon-like peptide-2 receptor) (human, UniProt O95838 1-553)
T1 sequence (looked up): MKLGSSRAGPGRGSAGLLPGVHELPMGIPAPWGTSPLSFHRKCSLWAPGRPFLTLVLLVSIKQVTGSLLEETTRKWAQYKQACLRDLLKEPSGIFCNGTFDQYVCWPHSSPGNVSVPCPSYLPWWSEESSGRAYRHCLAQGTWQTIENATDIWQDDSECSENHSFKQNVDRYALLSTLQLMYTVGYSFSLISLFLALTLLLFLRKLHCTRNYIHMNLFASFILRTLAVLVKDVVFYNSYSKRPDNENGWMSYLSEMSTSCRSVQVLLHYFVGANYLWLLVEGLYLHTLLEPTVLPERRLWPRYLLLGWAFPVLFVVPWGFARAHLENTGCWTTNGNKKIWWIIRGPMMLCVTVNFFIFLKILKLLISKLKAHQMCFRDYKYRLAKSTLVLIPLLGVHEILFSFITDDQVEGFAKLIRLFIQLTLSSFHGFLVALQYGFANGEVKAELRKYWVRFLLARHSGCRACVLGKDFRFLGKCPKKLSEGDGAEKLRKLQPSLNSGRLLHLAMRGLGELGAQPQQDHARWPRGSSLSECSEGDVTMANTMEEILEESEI

[2] = target: T2, human GIPR (glucose-dependent insulinotropic polypeptide receptor) (human, UniProt P48546 22-466)
T2 sequence (looked up): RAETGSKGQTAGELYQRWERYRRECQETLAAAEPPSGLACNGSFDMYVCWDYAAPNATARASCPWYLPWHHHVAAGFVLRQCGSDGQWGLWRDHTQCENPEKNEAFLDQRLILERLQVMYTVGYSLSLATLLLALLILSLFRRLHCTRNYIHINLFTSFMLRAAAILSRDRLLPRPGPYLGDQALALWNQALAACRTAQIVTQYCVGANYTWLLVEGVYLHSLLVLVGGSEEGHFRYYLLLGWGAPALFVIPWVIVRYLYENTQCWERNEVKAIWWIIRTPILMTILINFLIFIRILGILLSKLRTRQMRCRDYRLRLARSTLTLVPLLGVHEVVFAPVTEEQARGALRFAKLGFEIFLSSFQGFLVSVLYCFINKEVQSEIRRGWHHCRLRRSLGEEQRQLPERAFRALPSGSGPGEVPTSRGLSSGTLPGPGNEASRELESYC

[3] = target: T3, Human N-terminally SNAP-tagged GIPR (human, UniProt P48546 22-466, SNAP tag labeled with Tag-Lite SNAP-Lumi4-Tb)
T3 sequence (looked up): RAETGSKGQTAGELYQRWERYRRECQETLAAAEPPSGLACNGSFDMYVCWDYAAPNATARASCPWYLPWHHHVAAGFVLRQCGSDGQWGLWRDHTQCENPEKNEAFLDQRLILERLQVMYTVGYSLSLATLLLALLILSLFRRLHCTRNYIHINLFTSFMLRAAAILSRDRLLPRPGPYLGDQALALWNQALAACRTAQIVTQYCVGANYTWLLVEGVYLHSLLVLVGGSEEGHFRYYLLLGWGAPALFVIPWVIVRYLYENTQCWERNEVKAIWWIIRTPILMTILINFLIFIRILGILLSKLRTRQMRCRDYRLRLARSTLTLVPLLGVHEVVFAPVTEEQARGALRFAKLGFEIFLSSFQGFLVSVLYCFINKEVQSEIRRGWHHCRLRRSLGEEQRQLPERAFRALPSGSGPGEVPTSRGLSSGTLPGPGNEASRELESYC

[4] = target: human GLP-1R (glucagon-like peptide-1 receptor) (human, UniProt P43220 24-463)

Binder: HADGTFTSDYSTILDKLAARDFINWLIQTKGKKNDWK([AEEA-AEEA-γGlu-C18 diacid])HNITQ-OH [Compound 25]
- EC50 (nM) GLP-2R [1]: 7.9 nM
- Efficacy GLP-2R [1]: 117
- logEC50 GLP-2R [1]: 8.1
- EC50 (nM) GIPR [2]: 0.398 nM
- Efficacy GIPR [2]: 107
- pEC50 GIPR [2]: 9.4
- Absolute hGIPR internalization (AUC) [3]: 13.1 AUC
- Relative hGIPR internalization (%) [3]: 35%
- EC50 (nM) GLP-1R [4]: 0.05 nM
- Efficacy GLP-1R [4]: 116
- logEC50 GLP-1R [4]: 10.3

Binder: HADGTFTSDYSTILDKLAARDFINWLIQTKGKKNDWKHNITQK([AEEA-AEEA-γGlu-C18 diacid])-OH [Compound 26]
- EC50 (nM) GLP-2R [1]: 5.6 nM
- Efficacy GLP-2R [1]: 112
- logEC50 GLP-2R [1]: 8.3
- Absolute hGIPR internalization (AUC) [3]: 16.4 AUC
- Relative hGIPR internalization (%) [3]: 44%
- EC50 (nM) GLP-1R [4]: 0.04 nM
- Efficacy GLP-1R [4]: 103
- logEC50 GLP-1R [4]: 10.4

Binder: HADGTFTSDYST[Aib]LDKLAARDFINWLIQTKGKKNDWKHNITQK([AEEA-AEEA-γGlu-C18 diacid])-OH [Compound 27]
- EC50 (nM) GLP-2R [1]: 3.2 nM
- Efficacy GLP-2R [1]: 85
- logEC50 GLP-2R [1]: 8.5
- EC50 (nM) GIPR [2]: 0.562 nM
- Efficacy GIPR [2]: 124
- pEC50 GIPR [2]: 9.3
- Absolute hGIPR internalization (AUC) [3]: 9 AUC
- Relative hGIPR internalization (%) [3]: 24%
- EC50 (nM) GLP-1R [4]: 0.05 nM
- Efficacy GLP-1R [4]: 115
- logEC50 GLP-1R [4]: 10.3

B1: Compound 18 (peptide)
peptide: HADGTFTSDYSTILDNLAAK([AEEA-AEEA-γGlu-C18 diacid])DFINWLIQTKGKK-OH
modifications: N-terminus assumed
SMILES: CC[C@H](C)[C@H](NC(=O)[C@H](Cc1ccccc1)NC(=O)[C@H](CC(=O)O)NC(=O)[C@H](CCCCNC(=O)COCCOCCNC(=O)COCCOCCNC(=O)CC[C@H](NC(=O)CCCCCCCCCCCCCCCCC(=O)O)C(=O)O)NC(=O)[C@H](C)NC(=O)[C@H](C)NC(=O)[C@H](CC(C)C)NC(=O)[C@H](CC(N)=O)NC(=O)[C@H](CC(=O)O)NC(=O)[C@H](CC(C)C)NC(=O)[C@@H](NC(=O)[C@@H](NC(=O)[C@H](CO)NC(=O)[C@H](Cc1ccc(O)cc1)NC(=O)[C@H](CC(=O)O)NC(=O)[C@H](CO)NC(=O)[C@@H](NC(=O)[C@H](Cc1ccccc1)NC(=O)[C@@H](NC(=O)CNC(=O)[C@H](CC(=O)O)NC(=O)[C@H](C)NC(=O)[C@@H](N)Cc1c[nH]cn1)[C@@H](C)O)[C@@H](C)O)[C@@H](C)O)[C@@H](C)CC)C(=O)N[C@@H](CC(N)=O)C(=O)N[C@@H](Cc1c[nH]c2ccccc12)C(=O)N[C@@H](CC(C)C)C(=O)N[C@H](C(=O)N[C@@H](CCC(N)=O)C(=O)N[C@H](C(=O)N[C@@H](CCCCN)C(=O)NCC(=O)N[C@@H](CCCCN)C(=O)N[C@@H](CCCCN)C(=O)O)[C@@H](C)O)[C@@H](C)CC
- Efficacy GIPR [2]: 82
- Absolute hGIPR internalization (AUC) [3]: 2.1 AUC
- EC50 (nM) GLP-1R [4]: 0.06 nM
- Efficacy GLP-1R [4]: 112
- logEC50 GLP-1R [4]: 10.2

Binder: HADGTFTSDYSTILDKLAARDFINWLIQTKGKK([AEEA-AEEA-γGlu-C18 diacid])NDWKHNITQ-OH [Compound 24]
- EC50 (nM) GIPR [2]: 0.398 nM
- Efficacy GIPR [2]: 96
- pEC50 GIPR [2]: 9.4
- Absolute hGIPR internalization (AUC) [3]: 15 AUC
- Relative hGIPR internalization (%) [3]: 41%
- EC50 (nM) GLP-1R [4]: 0.05 nM
- Efficacy GLP-1R [4]: 113
- logEC50 GLP-1R [4]: 10.3

Binder: HXDGTFISDYSTILDNLAARDFINWLIQTKITK (Aib at position 2; K33 acylated with C10, K(C10); C-terminal amide (-NH2)) [Compound 1]
- Absolute hGIPR internalization (AUC) [3]: 5.3 AUC
